In patent publication US20230203146A1:

Key:
[1] = molecular target: FLAG-tagged human Ang2 (human) (UniProt O15123); test: competition ELISA: blocking of FLAG-hAng2 binding to coated hTie2-Fc
[2] = molecular target: FLAG-tagged human Ang2 (human) (UniProt O15123); test: as above; remark: listed apart in the source
[3] = molecular target: FLAG-tagged human Ang2 (human) (UniProt O15123); test: as above; remark: listed apart in the source
[4] = molecular target: FLAG-tagged mouse Ang2 (mouse) (UniProt O35608); test: competition ELISA: blocking of FLAG-mAng2 binding to coated mTie2-Fc
[5] = molecular target: FLAG-tagged human Ang2 (human) (UniProt O15123); test: competition ELISA: blocking of FLAG-hAng2 binding to coated hTie2-Fc; remark: listed apart in the source
[6] = molecular target: FLAG-tagged cynomolgus Ang2 (cynomolgus); test: competition ELISA: blocking of FLAG-cAng2 binding to coated cTie2-Fc
[7] = molecular target: FLAG-tagged mouse Ang2 (mouse) (UniProt O35608); test: competition ELISA: FLAG-mAng2 binding to coated mTie2-Fc, residual mAng2 detected with anti-FLAG-HRP
[8] = molecular target: FLAG-tagged mouse Ang2 (mouse) (UniProt O35608); test: as above; remark: listed apart in the source
[9] = molecular target: FLAG-tagged cynomolgus Ang2 (cynomolgus); test: competition ELISA: FLAG-cAng2 binding to coated cTie2-Fc, residual cAng2 detected with anti-FLAG-HRP
[10] = molecular target: FLAG-tagged human Ang2 (human) (UniProt O15123); test: competition ELISA: FLAG-hAng2 binding to coated hTie2-Fc, residual hAng2 detected with anti-FLAG-HRP
[11] = molecular target: FLAG-tagged human Ang2 (human) (UniProt O15123); test: as above; remark: listed apart in the source
[12] = molecular target: FLAG-tagged human Ang2 (human) (UniProt O15123); test: as above; remark: listed apart in the source
[13] = molecular target: FLAG-tagged human Ang2 (human) (UniProt O15123); test: as above; remark: listed apart in the source
[14] = molecular target: FLAG-tagged mouse Ang2 (mouse) (UniProt O35608); test: competition ELISA: FLAG-mAng2 binding to coated mTie2-Fc, residual mAng2 detected with anti-FLAG-HRP; remark: listed apart in the source

FLAG-tagged human Ang2 (human), sequence (O15123 19-496): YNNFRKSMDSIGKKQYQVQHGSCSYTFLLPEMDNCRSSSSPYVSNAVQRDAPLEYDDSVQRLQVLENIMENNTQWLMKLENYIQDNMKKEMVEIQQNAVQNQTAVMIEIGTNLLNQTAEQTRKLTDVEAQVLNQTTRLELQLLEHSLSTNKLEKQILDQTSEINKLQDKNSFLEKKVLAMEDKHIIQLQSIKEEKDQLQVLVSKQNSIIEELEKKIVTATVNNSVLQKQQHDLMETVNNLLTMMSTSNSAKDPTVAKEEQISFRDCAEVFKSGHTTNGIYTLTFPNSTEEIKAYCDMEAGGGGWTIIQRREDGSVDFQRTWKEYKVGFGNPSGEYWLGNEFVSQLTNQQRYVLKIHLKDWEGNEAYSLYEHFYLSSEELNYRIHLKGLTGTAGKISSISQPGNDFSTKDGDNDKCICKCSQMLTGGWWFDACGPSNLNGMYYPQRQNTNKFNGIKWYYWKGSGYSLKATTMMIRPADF
FLAG-tagged mouse Ang2 (mouse), sequence (O35608 19-496 limits assumed): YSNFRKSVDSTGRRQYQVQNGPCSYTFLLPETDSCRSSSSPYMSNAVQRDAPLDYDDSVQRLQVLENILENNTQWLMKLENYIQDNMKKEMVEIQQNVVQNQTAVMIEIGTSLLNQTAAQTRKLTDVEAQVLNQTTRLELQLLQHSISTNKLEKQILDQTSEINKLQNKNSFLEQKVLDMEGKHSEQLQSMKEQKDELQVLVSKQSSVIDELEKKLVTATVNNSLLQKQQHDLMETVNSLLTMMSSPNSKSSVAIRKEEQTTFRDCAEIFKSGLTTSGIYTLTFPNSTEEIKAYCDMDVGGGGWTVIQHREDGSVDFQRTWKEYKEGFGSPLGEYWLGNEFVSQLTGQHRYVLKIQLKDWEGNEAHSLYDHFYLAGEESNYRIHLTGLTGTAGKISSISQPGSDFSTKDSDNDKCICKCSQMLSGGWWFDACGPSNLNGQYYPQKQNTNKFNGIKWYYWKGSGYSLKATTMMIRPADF
FLAG-tagged cynomolgus Ang2 (cynomolgus), sequence (O15123 other isoform, or with tags, fused parts or gaps limits assumed): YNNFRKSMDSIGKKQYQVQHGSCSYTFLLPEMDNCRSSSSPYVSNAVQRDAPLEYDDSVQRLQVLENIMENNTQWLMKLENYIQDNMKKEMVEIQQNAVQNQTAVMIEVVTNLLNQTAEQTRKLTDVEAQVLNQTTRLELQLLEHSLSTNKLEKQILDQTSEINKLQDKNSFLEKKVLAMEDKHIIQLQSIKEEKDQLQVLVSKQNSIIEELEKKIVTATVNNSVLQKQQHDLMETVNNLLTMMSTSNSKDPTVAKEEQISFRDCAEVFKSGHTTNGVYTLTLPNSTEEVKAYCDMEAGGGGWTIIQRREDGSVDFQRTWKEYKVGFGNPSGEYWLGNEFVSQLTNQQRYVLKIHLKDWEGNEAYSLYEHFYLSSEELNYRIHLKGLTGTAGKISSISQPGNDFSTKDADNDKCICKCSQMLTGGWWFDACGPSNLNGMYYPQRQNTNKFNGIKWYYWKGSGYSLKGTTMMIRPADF

IC50 (read off the curve) [1]: 4 pM
IC50 (read off the curve) [2]: 5 pM
IC50 (read off the curve) [3]: 3 pM
IC50 (read off the curve) [4]: 6 pM
IC50 (read off the curve) [5]: 0.5 pM
IC50 (read off the curve) [6]: 1 pM
IC50 (read off the curve) [7]: 7 pM
IC50 (read off the curve) [8]: 3 pM
IC50 (read off the curve) [9]: 10 pM
IC50 (read off the curve) [10]: 2 pM
IC50 (read off the curve) [11]: 3 pM
IC50 (read off the curve) [12]: 6 pM
IC50 (read off the curve) [13]: 5 pM
IC50 (read off the curve) [14]: 4 pM
Substance: AMG386 (Fc fusion)
